Data published in patent US8785135B2, “Mutant G-protein coupled receptors and methods for selecting them” (Heptares Therapeutics Limited, priority 2007, dated 2014).

B1: A203L: A2aR point mutant (protein, UniProt P29274 1-412, looked up, variant A203L)
Adenosine receptor A2a: MPIMGSSVYITVELAIAVLAILGNVLVCWAVWLNSNLQNVTNYFVVSLAAADIAVGVLAIPFAITISTGFCAACHGCLFIACFVLVLTQSSIFSLLAIAIDRYIAIRIPLRYNGLVTGTRAKGIIAICWVLSFAIGLTPMLGWNNCGQPKEGKNHSQGCGEGQVACLFEDVVPMNYMVYFNFFACVLVPLLLMLGVYLRIFLLARRQLKQMESQPLPGERARSTLQKEVHAAKSLAIIVGLFALCWLPLHIINCFTFFCPDCSHAPLWLMYLAIVLSHTNSVVNPFIYAYRIREFRQTFRKIIRSHVLRQQEPFKAAGTSARVLAAHGSDGEQVSLRLNGHPPGVWANGSAPHPERRPNGYALGLVSGGSAQESQGNTGLPDVELLSHELKGVCPEPPGLDDPLAQDGAGVS
B2: S213A: A2aR point mutant (protein, UniProt P29274 1-412, looked up, variant S213A)
Adenosine receptor A2a: MPIMGSSVYITVELAIAVLAILGNVLVCWAVWLNSNLQNVTNYFVVSLAAADIAVGVLAIPFAITISTGFCAACHGCLFIACFVLVLTQSSIFSLLAIAIDRYIAIRIPLRYNGLVTGTRAKGIIAICWVLSFAIGLTPMLGWNNCGQPKEGKNHSQGCGEGQVACLFEDVVPMNYMVYFNFFACVLVPLLLMLGVYLRIFLAARRQLKQMEAQPLPGERARSTLQKEVHAAKSLAIIVGLFALCWLPLHIINCFTFFCPDCSHAPLWLMYLAIVLSHTNSVVNPFIYAYRIREFRQTFRKIIRSHVLRQQEPFKAAGTSARVLAAHGSDGEQVSLRLNGHPPGVWANGSAPHPERRPNGYALGLVSGGSAQESQGNTGLPDVELLSHELKGVCPEPPGLDDPLAQDGAGVS
B3: E219A: A2aR point mutant (protein, UniProt P29274 1-412, looked up, variant E219A)
Adenosine receptor A2a: MPIMGSSVYITVELAIAVLAILGNVLVCWAVWLNSNLQNVTNYFVVSLAAADIAVGVLAIPFAITISTGFCAACHGCLFIACFVLVLTQSSIFSLLAIAIDRYIAIRIPLRYNGLVTGTRAKGIIAICWVLSFAIGLTPMLGWNNCGQPKEGKNHSQGCGEGQVACLFEDVVPMNYMVYFNFFACVLVPLLLMLGVYLRIFLAARRQLKQMESQPLPGARARSTLQKEVHAAKSLAIIVGLFALCWLPLHIINCFTFFCPDCSHAPLWLMYLAIVLSHTNSVVNPFIYAYRIREFRQTFRKIIRSHVLRQQEPFKAAGTSARVLAAHGSDGEQVSLRLNGHPPGVWANGSAPHPERRPNGYALGLVSGGSAQESQGNTGLPDVELLSHELKGVCPEPPGLDDPLAQDGAGVS
B4: L208A: A2aR point mutant (protein, UniProt P29274 1-412, looked up, variant L208A)
Adenosine receptor A2a: MPIMGSSVYITVELAIAVLAILGNVLVCWAVWLNSNLQNVTNYFVVSLAAADIAVGVLAIPFAITISTGFCAACHGCLFIACFVLVLTQSSIFSLLAIAIDRYIAIRIPLRYNGLVTGTRAKGIIAICWVLSFAIGLTPMLGWNNCGQPKEGKNHSQGCGEGQVACLFEDVVPMNYMVYFNFFACVLVPLLLMLGVYLRIFLAARRQAKQMESQPLPGERARSTLQKEVHAAKSLAIIVGLFALCWLPLHIINCFTFFCPDCSHAPLWLMYLAIVLSHTNSVVNPFIYAYRIREFRQTFRKIIRSHVLRQQEPFKAAGTSARVLAAHGSDGEQVSLRLNGHPPGVWANGSAPHPERRPNGYALGLVSGGSAQESQGNTGLPDVELLSHELKGVCPEPPGLDDPLAQDGAGVS
B5: Q210A: A2aR point mutant (protein, UniProt P29274 1-412, looked up, variant Q210A)
Adenosine receptor A2a: MPIMGSSVYITVELAIAVLAILGNVLVCWAVWLNSNLQNVTNYFVVSLAAADIAVGVLAIPFAITISTGFCAACHGCLFIACFVLVLTQSSIFSLLAIAIDRYIAIRIPLRYNGLVTGTRAKGIIAICWVLSFAIGLTPMLGWNNCGQPKEGKNHSQGCGEGQVACLFEDVVPMNYMVYFNFFACVLVPLLLMLGVYLRIFLAARRQLKAMESQPLPGERARSTLQKEVHAAKSLAIIVGLFALCWLPLHIINCFTFFCPDCSHAPLWLMYLAIVLSHTNSVVNPFIYAYRIREFRQTFRKIIRSHVLRQQEPFKAAGTSARVLAAHGSDGEQVSLRLNGHPPGVWANGSAPHPERRPNGYALGLVSGGSAQESQGNTGLPDVELLSHELKGVCPEPPGLDDPLAQDGAGVS

Assay: Thermostability of A2aR and mutants (ligand binding after or during heating)
Type: physicochemical
Conditions: Ligand(−) format, binding after the heating step
Excerpt: FIG. 12 Flow chart showing the two different assay formats of ligand (+) and ligand (−) used to determine receptor thermostability.
• 1. 315 site-directed mutants made between residues 2-316 of A2aR. • 2. All of these mutants have been assayed for thermostability using an assay measuring agonist and antagonist binding after the heating step (Ligand(−) format as described in FIG. 12). • a. […] Mutations have been combined to generate mutants in a putative antagonist conformation. Wildtype A2aR has a Tm of 31° C. with ZM241385 bound. • a. Rant17 A54L+K122A+L235A Tm 48° C. (ZM241385 bound) • b. Rant19 A54L, T88A, V239A+A204L Tm 47° C. (ZM241385 bound) • c. Rant21 A54L, T88A, V239A+K122A Tm 49° C. (ZM241385 bound) • 4. Mutations from the agonist screen have been combined, but have led to only a very low level of improvement in Tm of +2° C.

Thermostability assayed with 3H-ZM241385 (antagonist), improved thermostability:
B1

Thermostability measured with 3H-NECA (agonist), improved thermostability:
B1
B2
B3
B4
B5
